Reference: publication PMC10371798 (2023)

Target: CA-FN domains of human RPTPζ (amino acid residues 34-410) fused to human IgG1 Fc, purified (human, UniProt P23471 34-410)
Experiment: AlphaScreen competition with biotinylated TNC(Fg)

IC50 | Binder
43 nM | Fg domain of human tenascin-C (amino acid residues 1975-2201) (domain or fragment) GLLYPFPKDCSQAMLNGDTTSGLYTIYLNGDKAEALEVFCDMTSDGGGWIVFLRRKNGRENFYQNWKAYAAGFGDRREEFWLGLDNLNKITAQGQYELRVDLRDHGETAFAVYDKFSVGDAKTRYKLKVEGYSGTAGDSMAYHNGRSFSTFDKDTDSAITNCALSYKGAFWYRNCHRVNLMGRYGDNNHSQGVNWFHWKGHEHSIQFAEMKLRPSNFRNLEGRRKRA
47 nM | Fg domain of human tenascin-R (amino acid residues 1129-1358) (domain or fragment) GRVFPHPQDCAQHLMNGDTLSGVYPIFLNGELSQKLQVYCDMTTDGGGWIVFQRRQNGQTDFFRKWADYRVGFGNVEDEFWLGLDNIHRITSQGRYELRVDMRDGQEAAFASYDRFSVEDSRNLYKLRIGSYNGTAGDSLSYHQGRPFSTEDRDNDVAVTNCAMSYKGAWWYKNCHRTNLNGKYGESRHSQGINWYHWKGHEFSIPFVEMKMRPYNHRLMAGRKRQSLQF
